# Experimental data from PMC6401066, “A dynamically interacting flexible loop assists oligomerisation of the Caenorhabditis elegans centriolar protein SAS-6” (Scientific Reports, 2019).
# Substitutions are numbered along the chain they refer to. In names and notes the source's numbering stands.
# B1: CeSAS-6N S123E variant (domain or fragment, C. elegans, UniProt O62479 1-168, looked up)
# chain: MTSKIALFDQTLIASLLQPLSLNQPDFKAYKTKVKLKISEQRNETSGEKELKFEISRSDDFEFLFSETLNNEKYQILARDHDLTVDFDAFPKVIIQHLLCKNIVKNLEEDGEVDARKKAGYHEIADPGKPTEINIILDAEKNFCSFELFSKTPISKGKIFSIKLHAVR
# modifications: 1,5-IAEDANS conjugated to C100 (fluorescence polarisation samples)
# notes: SAS-6, C. elegans, N-terminal domain, amino acids 1-168, with S123E; source: E. coli BL21 (DE3), purified (His-Trap HP, thrombin cleavage, Sephadex G75 SEC); not shown: His6, N-terminal, cleaved
# B2: C. elegans SAS-6 N-terminal domain, wild type (CeSAS-6N WT, amino acids 1-168) (domain or fragment, UniProt O62479 1-168, looked up)
# chain: B1 chain with E123S
# modifications: 1,5-IAEDANS conjugated to C100 (fluorescence polarisation samples)
# notes: spindle assembly abnormal protein 6 (SAS-6), C. elegans, N-terminal domain, amino acids 1-168; Samples for NMR were isotopically labelled (15N) and carried no fluorophore; also called WT CeSAS-6N; source: E. coli BL21 (DE3), purified (His-Trap HP, thrombin cleavage, Sephadex G75 SEC); not shown: His6, N-terminal, cleaved
# B3: C. elegans SAS-6 N-terminal domain plus a short stretch of the coiled coil, wild type (CeSAS-6N-CC WT, amino acids 1-215) (domain or fragment, UniProt O62479 1-215, looked up)
# chain: MTSKIALFDQTLIASLLQPLSLNQPDFKAYKTKVKLKISEQRNETSGEKELKFEISRSDDFEFLFSETLNNEKYQILARDHDLTVDFDAFPKVIIQHLLCKNIVKNLEEDGEVDARKKAGYHSIADPGKPTEINIILDAEKNFCSFELFSKTPISKGKIFSIKLHAVRGDHLISHLLKICSSQAVKLSTFYKSADELASLRQKCGDLEKQVEKLS
# notes: SAS-6, C. elegans, N-terminal domain plus a short stretch of the coiled coil, amino acids 1-215; Forms a dimer through the coiled coil (calculated mass of the dimer 48.8 kDa) that assembles further through the NN interface; also called WT CeSAS-6_(N-CC); source: E. coli BL21 (DE3), purified (His-Trap HP, thrombin cleavage, Sephadex G75 SEC); not shown: His6, N-terminal, cleaved
# B4: CeSAS-6N-CC Δ103–130 (domain or fragment, C. elegans, UniProt O62479 1-215, looked up)
# chain: MTSKIALFDQTLIASLLQPLSLNQPDFKAYKTKVKLKISEQRNETSGEKELKFEISRSDDFEFLFSETLNNEKYQILARDHDLTVDFDAFPKVIIQHLLCKNTEINIILDAEKNFCSFELFSKTPISKGKIFSIKLHAVRGDHLISHLLKICSSQAVKLSTFYKSADELASLRQKCGDLEKQVEKLS
# notes: source: E. coli BL21 (DE3), purified (His-Trap HP, thrombin cleavage, Sephadex G75 SEC); not shown: His6, N-terminal, cleaved
# Assays:
# [1] = target: SAS-6 coiled coil (CC interface) (Caenorhabditis elegans) (UniProt O62479); conditions: cited from earlier work
# FP = target: the molecule itself; assay: FP
# [2] = target: the molecule itself; assay: fluorescence polarisation; 1,5-IAEDANS on C100 of CeSAS-6N; polarisation against protein concentration in PBS; fit of an ideal self-association model; monomer to NN dimer; three independent experiments
# [3] = target: the molecule itself; assay: SEC; analytical SEC, Superdex 75 10/300 GL, PBS (20 mM sodium phosphate pH 7.0, 150 mM NaCl, 2 mM DTT); different protein concentrations, up to 10 mg/ml; self-association
molecule,measurement,setting,value
SAS-6 coiled coil (CC interface) (from UniProt O62479),Kd,[1],1 µM
B1,Kd,FP,48 µM
same,fold increase of NN affinity against CeSAS-6N WT,[2],~2 fold
B2,Kd,[2],~100 µM
B3,binding result,[3],binds
B4,stoichiometry N,[3],2
